{"source": "patent US20260274955A1", "about": "(JANUX THERAPEUTICS, published 2026)", "binders": {"B1": {"name": "Phage-398 (peptide)", "peptide": "YCHGHLQEYMAKCL"}, "B2": {"name": "Phage-306 (peptide)", "peptide": "YCDGHAPEYMKKCL"}, "B3": {"name": "Phage-354 (peptide)", "peptide": "YCEGHSAEYIFKCL"}, "B4": {"name": "Phage-359 (peptide)", "peptide": "YCDGHAREYMTKCL"}, "B5": {"name": "Phage-361 (peptide)", "peptide": "YCDGHSSMYMAKCL"}, "B6": {"name": "Phage-308 (peptide)", "peptide": "YCDGHEPQYLEKCL"}, "B7": {"name": "Phage-390 (peptide)", "peptide": "YCDGHSPQYMQKCL"}, "B8": {"name": "Phage-391 (peptide)", "peptide": "YCDGHIPEYLAKCL"}, "B9": {"name": "Phage-352 (peptide)", "peptide": "YCDGHSSEYIVKCL"}, "B10": {"name": "Phage-310 (peptide)", "peptide": "YCDGHVEEYLYKCL"}, "B11": {"name": "Phage-358 (peptide)", "peptide": "YCEGHAPQYLNKCL"}, "B12": {"name": "Phage-402 (peptide)", "peptide": "YCDGHHIEYLAKCL"}, "B13": {"name": "Phage-430 (peptide)", "peptide": "YCAGHLPEYLDKCL"}, "B14": {"name": "Phage-309 (peptide)", "peptide": "YCDGHAEEYMSKCL"}, "B15": {"name": "Phage-395 (peptide)", "peptide": "YCDGHIGEYMVKCL"}, "B16": {"name": "Phage-405 (peptide)", "peptide": "YCDGHSLQYMDKCL"}, "B17": {"name": "Phage-357 (peptide)", "peptide": "YCDGHLPLYMHKCL"}, "B18": {"name": "Phage-360 (peptide)", "peptide": "YCDGHTEEYMDKCL"}, "B19": {"name": "Phage-311 (peptide)", "peptide": "YCAGHLEEYMDKCL"}, "B20": {"name": "Phage-351 (peptide)", "peptide": "YCDGHLPMYFAKCM"}, "B21": {"name": "Phage-399 (peptide)", "peptide": "YCDGHSPEYMNKCL"}, "B22": {"name": "Phage-353 (peptide)", "peptide": "YCEGHAAEYMWKCL"}, "B23": {"name": "Phage-439 (peptide)", "peptide": "YCEGHAQEYMSKCL"}, "B24": {"name": "Phage-404 (peptide)", "peptide": "YCEGHLPEYMQKCL"}, "B25": {"name": "Phage-403 (peptide)", "peptide": "YCSGHLPEYMQKCL"}, "B26": {"name": "Phage-417 (peptide)", "peptide": "YCSGHLPEYMGKCL"}, "B27": {"name": "Phage-412 (peptide)", "peptide": "YCEGHLPDYMQKCL"}, "B28": {"name": "Phage-355 (peptide)", "peptide": "YCEGHSPMYMQKCM"}, "B29": {"name": "Phage-406 (peptide)", "peptide": "YCDGHYPEYMSKCL"}, "B30": {"name": "Phage-393 (peptide)", "peptide": "YCDGHVEPYLSKCL"}, "B31": {"name": "Phage-356 (peptide)", "peptide": "YCDGHSAEYMEKCI"}, "B32": {"name": "Phage-394 (peptide)", "peptide": "YCDGHKPQYMEKCL"}, "B33": {"name": "Phage-363 (peptide)", "peptide": "YCEGHSAEFMTKCL"}, "B34": {"name": "Phage-300 (peptide)", "peptide": "YCEGHLAQYMWKCL"}, "B35": {"name": "Phage-396 (peptide)", "peptide": "YCEGHLAQYMNKCL"}, "B36": {"name": "Phage-401 (peptide)", "peptide": "YCEGHSAEYMLKCL"}, "B37": {"name": "Phage-411 (peptide)", "peptide": "YCSGHSAEYMLKCL"}, "B38": {"name": "Phage-305 (peptide)", "peptide": "YCDGHSQEYMWKCL"}, "B39": {"name": "Phage-392 (peptide)", "peptide": "YCDGHSQEYMLKCL"}, "B40": {"name": "Phage-397 (peptide)", "peptide": "YCDGHVQEYMQKCL"}, "B41": {"name": "Phage-424 (peptide)", "peptide": "YCDGHLSEYMAKCL"}, "B42": {"name": "Phage-407 (peptide)", "peptide": "YCDGHASEYMAKCL"}, "B43": {"name": "Phage-400 (peptide)", "peptide": "YCDGHAPVYMAKCL"}, "B44": {"name": "Phage-307 (peptide)", "peptide": "YCDGHSKEYMHKCL"}, "B45": {"name": "Phage-362 (peptide)", "peptide": "YCAGHSSEYIWKCL"}, "B46": {"name": "Phage-433 (peptide)", "peptide": "YCAGHSAEYMWKCL"}, "B47": {"name": "Phage-435 (peptide)", "peptide": "YCAGHSMEYMAKCL"}, "B48": {"name": "Phage-419 (peptide)", "peptide": "YCAGHSAEYMAKCL"}, "B49": {"name": "Phage-282 (peptide)", "peptide": "YCDGHSPEHIRKCL"}, "B50": {"name": "Phage-247 (peptide)", "peptide": "YCDGHSPMYIGKCL"}, "B51": {"name": "Phage-255 (peptide)", "peptide": "YCDGHMGVYYWKCL"}, "B52": {"name": "Phage-252 (peptide)", "peptide": "YCEGHSIQYMAKCL"}, "B53": {"name": "Phage-299 (peptide)", "peptide": "YCDGHLKEYQEKCL"}, "B54": {"name": "Phage-275 (peptide)", "peptide": "YCAGHSVEYMAKCL"}, "B55": {"name": "Phage-281 (peptide)", "peptide": "YCEGHLSQYMEKCL"}, "B56": {"name": "Phage-257 (peptide)", "peptide": "YCDGHSHEYMEKCL"}, "B57": {"name": "Phage-249 (peptide)", "peptide": "YCEGHRPEYMQKCL"}, "B58": {"name": "Phage-256 (peptide)", "peptide": "YCDGHEAQYMSKCL"}, "B59": {"name": "Phage-280 (peptide)", "peptide": "YCDGHLVEYMSKCL"}, "B60": {"name": "Phage-273 (peptide)", "peptide": "YCDGHLEQYRAKCL"}, "B61": {"name": "Phage-284 (peptide)", "peptide": "YCEGHLSEYMAKCL"}, "B62": {"name": "Phage-285 (peptide)", "peptide": "YCEGHLPIYLSKCL"}}}
{"molecular_target": "T1, anti-CD28 Fab (SEQ ID NOs: 202, 203)", "T1 construct": "biotinylated and captured on neutravidin coated plates in the phage ELISA", "T1 sequence (VH, as listed by the source, chain 1 of 2)": "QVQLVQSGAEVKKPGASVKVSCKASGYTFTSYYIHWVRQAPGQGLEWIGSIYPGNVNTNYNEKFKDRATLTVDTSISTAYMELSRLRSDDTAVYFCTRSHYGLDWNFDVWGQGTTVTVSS", "T1 sequence (VL, as listed by the source, chain 2 of 2)": "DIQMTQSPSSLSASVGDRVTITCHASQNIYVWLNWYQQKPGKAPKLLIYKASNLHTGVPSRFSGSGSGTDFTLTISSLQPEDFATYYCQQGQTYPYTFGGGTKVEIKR", "experiment": "phage binding ELISA; biotinylated Fab on neutravidin plate;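 further: clonal phage supernatants added to Fab wells pretreated with CD28 antigen or with blocking buffer only, bound phage read out via HRP-linked anti-M13 antibody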", "method": "(§1) Clonal phage were harvested as crude supernatants and screened via standard ELISAs. […] Prior to the addition of clonal phage, wells were incubated with blocking buffer and CD28 antigen or blocking buffer alone. Without washing or aspirating, clonal phage supernatants were then added to the wells and incubated for a short time. Wells were then washed followed by detection of bound phage using a horse radish conjugated anti-M13 antibody."}
{"binder": "B1", "Anti-CD28 Fab (SEQ ID NOs: 202, 203) signal": 1.76}
{"binder": "B2", "Anti-CD28 Fab (SEQ ID NOs: 202, 203) signal": 1.9}
{"binder": "B3", "Anti-CD28 Fab (SEQ ID NOs: 202, 203) signal": 1.83}
{"binder": "B4", "Anti-CD28 Fab (SEQ ID NOs: 202, 203) signal": 1.82}
{"binder": "B5", "Anti-CD28 Fab (SEQ ID NOs: 202, 203) signal": 1.82}
{"binder": "B6", "Anti-CD28 Fab (SEQ ID NOs: 202, 203) signal": 1.9}
{"binder": "B7", "Anti-CD28 Fab (SEQ ID NOs: 202, 203) signal": 1.76}
{"binder": "B8", "Anti-CD28 Fab (SEQ ID NOs: 202, 203) signal": 1.76}
{"binder": "B9", "Anti-CD28 Fab (SEQ ID NOs: 202, 203) signal": 1.83}
{"binder": "B10", "Anti-CD28 Fab (SEQ ID NOs: 202, 203) signal": 1.9}
{"binder": "B11", "Anti-CD28 Fab (SEQ ID NOs: 202, 203) signal": 1.82}
{"binder": "B12", "Anti-CD28 Fab (SEQ ID NOs: 202, 203) signal": 1.75}
{"binder": "B13", "Anti-CD28 Fab (SEQ ID NOs: 202, 203) signal": 1.71}
{"binder": "B14", "Anti-CD28 Fab (SEQ ID NOs: 202, 203) signal": 1.9}
{"binder": "B15", "Anti-CD28 Fab (SEQ ID NOs: 202, 203) signal": 1.76}
{"binder": "B16", "Anti-CD28 Fab (SEQ ID NOs: 202, 203) signal": 1.75}
{"binder": "B17", "Anti-CD28 Fab (SEQ ID NOs: 202, 203) signal": 1.82}
{"binder": "B18", "Anti-CD28 Fab (SEQ ID NOs: 202, 203) signal": 1.82}
{"binder": "B19", "Anti-CD28 Fab (SEQ ID NOs: 202, 203) signal": 1.9}
{"binder": "B20", "Anti-CD28 Fab (SEQ ID NOs: 202, 203) signal": 1.83}
{"binder": "B21", "Anti-CD28 Fab (SEQ ID NOs: 202, 203) signal": 1.75}
{"binder": "B22", "Anti-CD28 Fab (SEQ ID NOs: 202, 203) signal": 1.83}
{"binder": "B23", "Anti-CD28 Fab (SEQ ID NOs: 202, 203) signal": 1.7}
{"binder": "B24", "Anti-CD28 Fab (SEQ ID NOs: 202, 203) signal": 1.75}
{"binder": "B25", "Anti-CD28 Fab (SEQ ID NOs: 202, 203) signal": 1.75}
{"binder": "B26", "Anti-CD28 Fab (SEQ ID NOs: 202, 203) signal": 1.73}
{"binder": "B27", "Anti-CD28 Fab (SEQ ID NOs: 202, 203) signal": 1.73}
{"binder": "B28", "Anti-CD28 Fab (SEQ ID NOs: 202, 203) signal": 1.83}
{"binder": "B29", "Anti-CD28 Fab (SEQ ID NOs: 202, 203) signal": 1.75}
{"binder": "B30", "Anti-CD28 Fab (SEQ ID NOs: 202, 203) signal": 1.76}
{"binder": "B31", "Anti-CD28 Fab (SEQ ID NOs: 202, 203) signal": 1.83}
{"binder": "B32", "Anti-CD28 Fab (SEQ ID NOs: 202, 203) signal": 1.76}
{"binder": "B33", "Anti-CD28 Fab (SEQ ID NOs: 202, 203) signal": 1.81}
{"binder": "B34", "Anti-CD28 Fab (SEQ ID NOs: 202, 203) signal": 1.91}
{"binder": "B35", "Anti-CD28 Fab (SEQ ID NOs: 202, 203) signal": 1.76}
{"binder": "B36", "Anti-CD28 Fab (SEQ ID NOs: 202, 203) signal": 1.75}
{"binder": "B37", "Anti-CD28 Fab (SEQ ID NOs: 202, 203) signal": 1.73}
{"binder": "B38", "Anti-CD28 Fab (SEQ ID NOs: 202, 203) signal": 1.9}
{"binder": "B39", "Anti-CD28 Fab (SEQ ID NOs: 202, 203) signal": 1.76}
{"binder": "B40", "Anti-CD28 Fab (SEQ ID NOs: 202, 203) signal": 1.76}
{"binder": "B41", "Anti-CD28 Fab (SEQ ID NOs: 202, 203) signal": 1.72}
{"binder": "B42", "Anti-CD28 Fab (SEQ ID NOs: 202, 203) signal": 1.75}
{"binder": "B43", "Anti-CD28 Fab (SEQ ID NOs: 202, 203) signal": 1.75}
{"binder": "B44", "Anti-CD28 Fab (SEQ ID NOs: 202, 203) signal": 1.9}
{"binder": "B45", "Anti-CD28 Fab (SEQ ID NOs: 202, 203) signal": 1.82}
{"binder": "B46", "Anti-CD28 Fab (SEQ ID NOs: 202, 203) signal": 1.71}
{"binder": "B47", "Anti-CD28 Fab (SEQ ID NOs: 202, 203) signal": 1.71}
{"binder": "B48", "Anti-CD28 Fab (SEQ ID NOs: 202, 203) signal": 1.73}
{"molecular_target": "T2, Anti-CD28 Fab (SEQ ID NOs: 202, 203)", "T2 construct": "biotinylated and captured on neutravidin coated plates in the phage ELISA", "T2 sequence (VH, as listed by the source, chain 1 of 2)": "as the sequence (VH, as listed by the source, chain 1 of 2) above", "T2 sequence (VL, as listed by the source, chain 2 of 2)": "as the sequence (VL, as listed by the source, chain 2 of 2) above", "experiment": "phage ELISA on captured biotinylated Fab;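 further: wells preblocked with or without CD28 antigen, then clonal phage supernatant added briefly, washed, and bound phage read out by ELISA using HRP-linked anti-M13 antibody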", "method": "as §1"}
{"binder": "B49", "Anti-CD28 Fab signal": 1.94}
{"binder": "B50", "Anti-CD28 Fab signal": 2.03}
{"binder": "B51", "Anti-CD28 Fab signal": 2.01}
{"binder": "B52", "Anti-CD28 Fab signal": 2.02}
{"binder": "B53", "Anti-CD28 Fab signal": 1.91}
{"binder": "B54", "Anti-CD28 Fab signal": 1.96}
{"binder": "B55", "Anti-CD28 Fab signal": 1.95}
{"binder": "B56", "Anti-CD28 Fab signal": 2.01}
{"binder": "B57", "Anti-CD28 Fab signal": 2.03}
{"binder": "B58", "Anti-CD28 Fab signal": 2.01}
{"binder": "B59", "Anti-CD28 Fab signal": 1.95}
{"binder": "B60", "Anti-CD28 Fab signal": 1.96}
{"binder": "B61", "Anti-CD28 Fab signal": 1.94}
{"binder": "B62", "Anti-CD28 Fab signal": 1.94}
